Here are results for 167 variants from the RNAGym collection of RNA variant scans (doi:10.7554/elife.80360).

First the molecules themselves.
B1: HDV Ribozyme (parent)
chain: GGCCGGCAUGGUCCCAGCCUCCUCGCUGGCGCCGGCUGGGCAACAUUCCGAGGGGACCGUCCCCUCGGUAAUGGCGAAUGGGACCCA

In this data set the parent is B1. Briefly: self-cleavage, relative activity (ratio to wild type); higher = more cleavage; co-transcriptional.
As to C41G C49G, the self-cleavage worked out at 0.597.

Consider C41G C49U, for which the self-cleavage stood at 0.608.

In the case of G40U A42U, the self-cleavage was found to be 0.496.

As to C41A A56G, the self-cleavage was 1.15.

As for C41U C84G, the self-cleavage was 0.589.

On to C41U G74U, for which the self-cleavage was found to be 0.806.

For C41U G74C, the self-cleavage turned out to be 0.174.

For C41U U60C, the self-cleavage came out at 0.906.

With C41U U46A, the self-cleavage is 0.942.

Consider A42C A45C, for which the self-cleavage was determined as 0.0462.

Take G40C G80U: the self-cleavage came out at 0.0817.

As to G40C G80A, the self-cleavage worked out at 0.0723.

G40U C75G: the self-cleavage is 0.166.

Regarding G40U G54U, the self-cleavage came out at 0.665.

For G40U U46C, the self-cleavage came out at 0.227.

Regarding C41G C63U, the self-cleavage came to 0.844.

Regarding G40U G74C, the self-cleavage is 0.111.

As to G40U G74U, the self-cleavage is 0.468.

As for C41A A78U, the self-cleavage was found to be 0.354.

As for C41A C66G, the self-cleavage worked out at 0.91.

Consider C41A C66A, for which the self-cleavage came out at 0.804.

Consider C41G G82C, for which the self-cleavage was determined as 0.158.

Regarding C41A C86G, the self-cleavage is 0.739.

On to G40U G53A, for which the self-cleavage worked out at 0.715.

With C41G G68U, the self-cleavage amounted to 0.596.

Consider C41U C75A, for which the self-cleavage is 0.0665.

With C41A C48G, the self-cleavage was 0.898.

In the case of C41A U47C, the self-cleavage was determined as 0.932.

For the variant C41A U47G, the self-cleavage is 1.08.

As for C41U A78G, the self-cleavage stood at 0.724.

As for C41U G52C, the self-cleavage was determined as 0.819.

In the case of G40C G68C, the self-cleavage was 0.177.

As to C41A G67A, the self-cleavage amounted to 0.914.

As for C41A G67U, the self-cleavage is 0.739.

As to C41U A56C, the self-cleavage was found to be 1.04.

On to C41U U47C, for which the self-cleavage was found to be 0.799.

As for C41U U47G, the self-cleavage amounted to 0.95.

With C41G C62A, the self-cleavage amounted to 0.814.

Regarding C41G C62U, the self-cleavage came out at 0.815.

With C41A U69G, the self-cleavage amounted to 0.975.

In the case of C41A U69C, the self-cleavage came to 0.898.

On to C41A C58G, for which the self-cleavage came to 0.935.

As for G40C C62U, the self-cleavage was found to be 0.324.

Take G40C C86A: the self-cleavage was 0.363.

As to C41A A42C, the self-cleavage is 0.739.

In the case of C41A A42U, the self-cleavage was found to be 0.743.

Take G40C C58U: the self-cleavage is 0.354.

In the case of C41A C64G, the self-cleavage was 0.884.

For C41U C63U, the self-cleavage was 1.12.

In the case of A42C A51G, the self-cleavage is 0.26.

On to A42C A51U, for which the self-cleavage is 0.369.

G40C G74C: the self-cleavage came out at 0.0652.

With C41G U60A, the self-cleavage was found to be 0.733.

In the case of C41A G81A, the self-cleavage turned out to be 0.242.

With C41G G80U, the self-cleavage turned out to be 0.124.

Take G40C C61U: the self-cleavage amounted to 0.192.

Regarding C41U C44G, the self-cleavage was 0.492.

For C41U C44A, the self-cleavage was found to be 0.353.

For the variant C41A C62G, the self-cleavage came out at 0.324.

A42C C86U: the self-cleavage turned out to be 0.178.

Regarding A42C C86G, the self-cleavage was found to be 0.353.

As to A42C C86A, the self-cleavage was determined as 0.312.

In the case of G40C G73C, the self-cleavage was found to be 0.185.

G40C G73A: the self-cleavage came to 0.223.

Take C41U A45U: the self-cleavage is 0.884.

As for C41U A45G, the self-cleavage came out at 0.575.

Turning to G40C G54C, the self-cleavage was determined as 0.343.

Regarding A42C G52U, the self-cleavage turned out to be 0.282.

As to C41G C58A, the self-cleavage was 0.895.

As for C41G C58U, the self-cleavage came to 0.746.

For the variant C41U C62G, the self-cleavage was determined as 0.426.

In the case of G40C G76C, the self-cleavage turned out to be 0.197.

In the case of C41G C85U, the self-cleavage worked out at 0.629.

For the variant C41G C85G, the self-cleavage is 0.429.

As for C41A G59C, the self-cleavage stood at 0.911.

Take C41A G59A: the self-cleavage amounted to 0.844.

For G40U A87G, the self-cleavage turned out to be 0.578.

For C41G G54U, the self-cleavage is 0.739.

As for C41A C44G, the self-cleavage was determined as 0.323.

Consider C41A G80C, for which the self-cleavage came out at 0.164.

For C41A C49G, the self-cleavage is 0.91.

Consider G40C G67U, for which the self-cleavage was 0.323.

With C41A U79A, the self-cleavage stood at 0.656.

Take G40U G80A: the self-cleavage was 0.197.

As to C41A A83G, the self-cleavage worked out at 0.732.

In the case of C41U C86U, the self-cleavage turned out to be 0.967.

Take C41A U65A: the self-cleavage worked out at 0.914.

Consider C41G G73U, for which the self-cleavage turned out to be 0.378.

Consider G40U C64A, for which the self-cleavage came out at 0.57.

G40U C64U: the self-cleavage came out at 0.59.

A42C A83C: the self-cleavage was found to be 0.101.

Consider G40U G59U, for which the self-cleavage came to 0.732.

For C41U C57A, the self-cleavage came to 0.986.

Take G40C C66A: the self-cleavage was 0.282.

Turning to G40C C66G, the self-cleavage is 0.253.

Turning to G40C U60A, the self-cleavage was 0.25.

For the variant G40U A70G, the self-cleavage is 0.528.

Regarding C41U C64U, the self-cleavage worked out at 0.892.

For C41U C64G, the self-cleavage was 0.635.

As to C41U C64A, the self-cleavage was 0.906.

Take C41G C86U: the self-cleavage turned out to be 0.657.

For A42C A70G, the self-cleavage was 0.312.

As for C41A A70G, the self-cleavage was determined as 0.916.

In the case of C41A A70C, the self-cleavage was found to be 0.527.

For the variant G40C U46C, the self-cleavage was found to be 0.117.

For G40U A78G, the self-cleavage was determined as 0.199.

Consider G40U G81U, for which the self-cleavage was 0.0989.

With C41G G50C, the self-cleavage was determined as 0.554.

Regarding C41G G50A, the self-cleavage was 0.911.

As for A42C C66A, the self-cleavage worked out at 0.332.

For A42C C58G, the self-cleavage stood at 0.26.

On to G40C C63U, for which the self-cleavage worked out at 0.409.

Take C41U U79C: the self-cleavage was found to be 0.332.

Turning to C41G A83G, the self-cleavage was determined as 0.759.

On to C41U G73C, for which the self-cleavage came out at 0.507.

On to C41U G73A, for which the self-cleavage was found to be 0.929.

For C41U C61G, the self-cleavage is 0.923.

For the variant A42C A77U, the self-cleavage turned out to be 0.369.

Consider A42C A77C, for which the self-cleavage was determined as 0.161.

C41G A70U: the self-cleavage was 0.746.

With A42C C49G, the self-cleavage came to 0.178.

Consider C41A G76A, for which the self-cleavage came to 0.845.

Take C41U G82U: the self-cleavage is 0.261.

On to C41U G82A, for which the self-cleavage stood at 0.246.

Regarding G40U G67A, the self-cleavage amounted to 0.699.

For the variant A42C G55U, the self-cleavage came out at 0.409.

A42C A87U: the self-cleavage is 0.283.

For A42C C85G, the self-cleavage is 0.469.

Turning to C41G A51U, the self-cleavage stood at 1.18.

In the case of C41G A51G, the self-cleavage worked out at 0.499.

Regarding C41U A70C, the self-cleavage amounted to 0.803.

With C41U G55A, the self-cleavage came to 1.06.

For C41A G55C, the self-cleavage was 0.831.

G40U A83G: the self-cleavage worked out at 0.597.

On to G40U A83C, for which the self-cleavage was determined as 0.453.

As for C41G U72A, the self-cleavage came to 0.499.

In the case of C41G U72C, the self-cleavage came out at 0.201.

As to G40U C41G, the self-cleavage came to 0.729.

Take A42C C75A: the self-cleavage turned out to be 0.116.

G40C U69A: the self-cleavage stood at 0.119.

Regarding C41U U69C, the self-cleavage was found to be 0.955.

As for C41G G81U, the self-cleavage came to 0.166.

In the case of C41G G81C, the self-cleavage turned out to be 0.138.

On to G40U A51U, for which the self-cleavage is 0.806.

With C41U C85G, the self-cleavage is 0.911.

C41U C85A: the self-cleavage came out at 0.937.

With C41U G68U, the self-cleavage was 0.504.

In the case of C41G C44U, the self-cleavage worked out at 0.403.

With G40C U65G, the self-cleavage was found to be 0.237.

As to A42C A71G, the self-cleavage turned out to be 0.361.

As to C41U C48G, the self-cleavage is 0.955.

With C41A G74U, the self-cleavage was 0.513.

With C41G A87C, the self-cleavage amounted to 0.65.

Turning to C41G U47A, the self-cleavage is 1.12.

Take G40C C85G: the self-cleavage turned out to be 0.16.

Turning to C41U G53A, the self-cleavage worked out at 1.12.

On to G40U C58U, for which the self-cleavage worked out at 0.669.

Turning to G40U C58A, the self-cleavage came to 0.67.

As to A42C A56G, the self-cleavage came out at 0.415.

As for C41A G73U, the self-cleavage was determined as 0.873.

In the case of C41A G73A, the self-cleavage is 0.912.

On to C41G U65C, for which the self-cleavage worked out at 0.745.

Turning to A42C C63U, the self-cleavage turned out to be 0.19.

For G40U U47G, the self-cleavage is 0.46.

With C41A G82C, the self-cleavage came to 0.289.

C41A G82U: the self-cleavage is 0.348.

Regarding C41A G82A, the self-cleavage was determined as 0.223.
